Experimental data as given in paper PMC9064986, “Crystal structures of BMPRII extracellular domain in binary and ternary receptor complexes with BMP10” (Nature Communications, 2022).
Blank lines part the entries; values can stand above or below the binder they belong to.

B5: Recombinant human BMP10 growth factor (GF)-domain (R&D Systems) (ligand, UniProt O95393 317-424, looked up)
chain: NAKGNYCKRTPLYIDFKEIGWDSWIIAPPGYEAYECRGVCNYPLAEHLTPTKHAIIQALVHLKNSQKASKACCVPTKLEPISILYLDKGVVTYKFKYEGMAVSECGCR
notes: growth factor (GF) domain of human BMP10, the cut product of the BMP10 precursor; also called BMP10 GF-domain; source: bought: R&D Systems (cat. No. 2926-BP-025/CF)

What was measured:
[1] = biological target: B5; test: SPR; Biacore T200; BMP10 GF-domain amine-coupled to a CM5 chip (1300 RU); ALK1-Fc, BMPRII-Fc or monomeric BMPRII WT and mutant ECDs injected at 40 ul/min; 10 mM HEPES pH 7.4, 150 mM NaCl, 3.4 mM EDTA, 0.5 mg/ml BSA, 0.005% P20, 25 °C; 1:1 model, KD = kd/ka; details: both partners purified
[2] = biological target: T1, BMPRII-Fc (R&D Systems) (UniProt Q13873 27-150); test: SPR; BMP10 flowed over a BMPRII-Fc surface, with ALK1 present (Supplementary Fig 5c); details: both partners purified
T1 construct: BMPRII part of the bought Fc fusion; source: bought: R&D Systems (cat. No. 811-BR)
T1 sequence (looked up): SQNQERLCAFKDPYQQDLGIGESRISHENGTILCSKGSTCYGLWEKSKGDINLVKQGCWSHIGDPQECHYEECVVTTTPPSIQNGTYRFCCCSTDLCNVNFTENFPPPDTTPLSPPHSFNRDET

[3] = biological target: T2, BMPRII ECD Q92H (human, UniProt Q13873-1 27-150, Q92H); test: SPR; Biacore T200; BMP10 GF-domain amine-coupled to a CM5 chip (1300 RU); ALK1-Fc, BMPRII-Fc or monomeric BMPRII WT and mutant ECDs injected at 40 ul/min; 10 mM HEPES pH 7.4, 150 mM NaCl, 3.4 mM EDTA, 0.5 mg/ml BSA, 0.005% P20, 25 °C; 1:1 model, KD = kd/ka; details: both partners purified
T2 construct: BMPRII (BMPR2) extracellular domain, human, amino acids 27-150 of the cDNA NM_001204; mutation found in PAH patients; source: E. coli Rosetta DE3, periplasm, purified (HisTrap, TEV cleavage, Superdex 75); not shown: DsbA, N-terminal, cleaved; His6, N-terminal, cleaved
T2 sequence (looked up): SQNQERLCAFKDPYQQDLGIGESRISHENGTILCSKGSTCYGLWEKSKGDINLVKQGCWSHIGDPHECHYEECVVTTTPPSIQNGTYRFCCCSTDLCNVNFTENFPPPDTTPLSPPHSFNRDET

[4] = biological target: T3, BMPRII ECD E98K (human, UniProt Q13873-1 27-150, E98K); test: as above; details: both partners purified
T3 construct: BMPRII (BMPR2) extracellular domain, human, amino acids 27-150 of the cDNA NM_001204; mutation found in PAH patients; source: E. coli Rosetta DE3, periplasm, purified (HisTrap, TEV cleavage, Superdex 75); not shown: DsbA, N-terminal, cleaved; His6, N-terminal, cleaved
T3 sequence (looked up): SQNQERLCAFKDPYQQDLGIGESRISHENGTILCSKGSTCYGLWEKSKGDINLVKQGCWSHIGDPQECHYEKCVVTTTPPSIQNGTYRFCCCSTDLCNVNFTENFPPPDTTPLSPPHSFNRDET

[5] = biological target: T4, BMPRII ECD N126S (human, UniProt Q13873-1 27-150, N126S); test: as above; details: both partners purified
T4 construct: BMPRII (BMPR2) extracellular domain, human, amino acids 27-150 of the cDNA NM_001204; mutation found in PAH patients; source: E. coli Rosetta DE3, periplasm, purified (HisTrap, TEV cleavage, Superdex 75); not shown: DsbA, N-terminal, cleaved; His6, N-terminal, cleaved
T4 sequence (looked up): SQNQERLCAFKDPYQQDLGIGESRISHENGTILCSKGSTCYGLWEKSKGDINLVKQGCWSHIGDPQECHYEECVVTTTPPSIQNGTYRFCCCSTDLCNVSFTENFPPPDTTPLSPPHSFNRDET

[6] = biological target: T3, BMPRII ECD E98K; test: native gel or EMSA; prodomain displacement: Pro:BMP10 premixed with BMPRII WT or mutant ECDs at 1:2 and 1:5 molar ratio, 20 mM Tris, 150 mM NaCl, pH 7.4, 30 min at room temperature, 12% native PAGE, Coomassie, densitometry of Pro:BMP10/prodomain; details: both partners purified
[7] = biological target: T4, BMPRII ECD N126S; test: as above; details: both partners purified
[8] = biological target: the molecule itself; test: crystal structure; BMP10:BMPRII ECD binary complex, two crystal forms (P212121, 1.48 Å; C2, 2.40 Å); complex refolded from denatured BMP10 GF-domain with excess BMPRII ECD

fold reduction in affinity against WT BMPRII ECD [1]: > 100 fold
B3: BMPRII ECD G89W (domain or fragment, human, UniProt Q13873-1 27-150, looked up)
chain: SQNQERLCAFKDPYQQDLGIGESRISHENGTILCSKGSTCYGLWEKSKGDINLVKQGCWSHIWDPQECHYEECVVTTTPPSIQNGTYRFCCCSTDLCNVNFTENFPPPDTTPLSPPHSFNRDET
notes: BMPRII (BMPR2) extracellular domain, human, amino acids 27-150 of the cDNA NM_001204; source: E. coli Rosetta DE3, periplasm, purified (HisTrap, TEV cleavage, Superdex 75); not shown: DsbA, N-terminal, cleaved; His6, N-terminal, cleaved

fold tighter binding than WT BMPRII ECD [1]: ~4 fold
B4: BMPRII ECD S107P (domain or fragment, human, UniProt Q13873-1 27-150, looked up)
chain: SQNQERLCAFKDPYQQDLGIGESRISHENGTILCSKGSTCYGLWEKSKGDINLVKQGCWSHIGDPQECHYEECVVTTTPPPIQNGTYRFCCCSTDLCNVNFTENFPPPDTTPLSPPHSFNRDET
notes: BMPRII (BMPR2) extracellular domain, human, amino acids 27-150 of the cDNA NM_001204; mutation found in PAH patients; source: E. coli Rosetta DE3, periplasm, purified (HisTrap, TEV cleavage, Superdex 75); not shown: DsbA, N-terminal, cleaved; His6, N-terminal, cleaved

Further lines, the binder ahead of its results:

B1: BMPRII ECD G89A (domain or fragment, human, UniProt Q13873-1 27-150, looked up)
chain: SQNQERLCAFKDPYQQDLGIGESRISHENGTILCSKGSTCYGLWEKSKGDINLVKQGCWSHIADPQECHYEECVVTTTPPSIQNGTYRFCCCSTDLCNVNFTENFPPPDTTPLSPPHSFNRDET
notes: as for B3
fold reduction in affinity against WT BMPRII ECD [1]: < 2 fold

B2: BMPRII ECD G89E (domain or fragment, human, UniProt Q13873-1 27-150, looked up)
chain: SQNQERLCAFKDPYQQDLGIGESRISHENGTILCSKGSTCYGLWEKSKGDINLVKQGCWSHIEDPQECHYEECVVTTTPPSIQNGTYRFCCCSTDLCNVNFTENFPPPDTTPLSPPHSFNRDET
notes: as for B3
fold reduction in affinity against WT BMPRII ECD [1]: > 100 fold

Binder: B5
fold weaker affinity with ALK1 present than without ALK1 [2]: ~5 fold | binding result [3]: binds | binding result [4]: binds | binding result [5]: binds

B6: BMP10 growth factor (GF)-domain from Pro:BMP10 made in HEK EBNA cells (ligand, human, UniProt O95393 317-424, looked up)
chain: NAKGNYCKRTPLYIDFKEIGWDSWIIAPPGYEAYECRGVCNYPLAEHLTPTKHAIIQALVHLKNSQKASKACCVPTKLEPISILYLDKGVVTYKFKYEGMAVSECGCR
notes: growth factor (GF) domain of human BMP10, cut by furin from the product of the full-length open reading frame (NM_014482); also called BMP10 GF-domain; source: HEK EBNA, full-length BMP10 cDNA co-transfected with FURIN, purified from conditioned medium as Pro:BMP10
binding result [6]: binds | binding result [7]: binds | binding result [8]: binds
